{
  "source": "patent EP4491629A1",
  "about": "(Université de Lorraine, dated 2025)",
  "data": [
    {"biological_target": "the molecule itself", "assay": "size exclusion chromatography (Superdex 75); self-association", "values": [
      {"protein": "Cricetulus griseus galectin-1 (wild-type), produced from the pCarONE vector (other, Lectin; recombinant from E. coli; The entries are about self-association (homodimer, printed as 2x16.6 kDa); also called Gal1 wild-type; Gal1; not shown: spacer arm and TEV protease cleavage site encoded by pCarONE) ACGLVASNLNLKPGECLKVRGEVAPDAKSFVLNLGKDSNNLCLHFNPRFNAHGDANTIVCNSKDNGAWGTEHREPAFPFQPGSTVEVCITFDQADLTIKLPDGHEFKFPNRLNMEAINYMAADGDFKIKCVAFE", "binding result": "binds"},
      {"protein": "E16K mutant of Cricetulus griseus galectin-1 (other, Recombinant from E. coli; tested for self-association by size exclusion chromatography; also called Gal1 E16K; Gal1 mutant E16K; not shown: spacer arm and TEV protease cleavage site encoded by pCarONEE16K) ACGLVASNLNLKPGKCLKVRGEVAPDAKSFVLNLGKDSNNLCLHFNPRFNAHGDANTIVCNSKDNGAWGTEHREPAFPFQPGSTVEVCITFDQADLTIKLPDGHEFKFPNRLNMEAINYMAADGDFKIKCVAFE", "binding result": "binds"},
      {"protein": "C131E mutant of Cricetulus griseus galectin-1 (other, also called Gal1 C131E; Gal1 mutant C131E) ACGLVASNLNLKPGECLKVRGEVAPDAKSFVLNLGKDSNNLCLHFNPRFNAHGDANTIVCNSKDNGAWGTEHREPAFPFQPGSTVEVCITFDQADLTIKLPDGHEFKFPNRLNMEAINYMAADGDFKIKEVAFEELSSGVDLGTENLYFQS", "binding result": "no binding"}
    ]}
  ]
}
